We go through three molecules from patent US20230167185A1 (STRIKE PHARMA, published 2023).

The target in test [1] is T1, Human CD40 Fc chimera (R&D Systems #1493-CDB) (human, UniProt P25942 21-193).
T1 construct: also called hCD40-Fc
In words: SPR, captured IgG2, SCK, 1:1 model, dimeric antigen.

Test [2] addresses T2, Cynomolgus CD40 Fc chimera (R&D Systems #9660-CD) (cynomolgus, UniProt G7PG38 21-193).
T2 construct: range 21-193; also called cCD40-Fc
Put plainly: SPR, captured IgG2, SCK, 1:1 model; apparent KD (appKD), dimeric antigen.

The target of test [3] is T1, Human CD40 Fc chimera (R&D Systems …). The test is described as above.
Test [4] has as its target T3, Mouse CD40 (AcroBiosystems #TN5-M52H8) (mouse, UniProt P27512 24-193).
T3 construct: range 24-193; also called mCD40
In words: SPR, captured IgG2, single injection of mCD40.

The target of test [5] is T4, Biotinylated human CD40 (AcroBiosystems #CD0-H82E8) (human, UniProt P25942 21-193).
T4 construct: also called hCD40-avi; Human CD40-avi; not shown: C-terminal Avi-tag
In words: SPR, captured IgG2, SCK, 1:1 model.

Test [6] concerns the target T2, Cynomolgus CD40 Fc chimera (R&D Systems …). Put plainly: SPR, captured IgG2, SCK, 1:1 model, dimeric antigen.
Test [7] deals with T5, caCD40-Fc (Sino Biological #70105-D02H) (canine, UniProt Q7YRL5 21-194).
T5 construct: also called Canine CD40-Fc; canine CD40; not shown: Fc part of the bought fusion
T5 sequence (looked up): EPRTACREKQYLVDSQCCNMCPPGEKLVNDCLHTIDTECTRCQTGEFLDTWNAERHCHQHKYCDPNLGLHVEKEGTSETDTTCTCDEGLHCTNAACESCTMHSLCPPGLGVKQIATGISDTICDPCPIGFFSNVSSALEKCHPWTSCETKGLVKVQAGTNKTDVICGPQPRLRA
Put plainly: SPR, captured IgG2, caCD40-Fc 0.16-100 nM, SCK.

Test [8] deals with human CD40 on cells (CD19+ cells of PBMC; monocyte-derived dendritic cells) (human, UniProt P25942 21-277). Put plainly: cell-based or functional assay.
Sequence of human CD40 on cells (CD19+ cells of PBMC; monocyte-derived dendritic cells) (P25942 21-277 limits assumed): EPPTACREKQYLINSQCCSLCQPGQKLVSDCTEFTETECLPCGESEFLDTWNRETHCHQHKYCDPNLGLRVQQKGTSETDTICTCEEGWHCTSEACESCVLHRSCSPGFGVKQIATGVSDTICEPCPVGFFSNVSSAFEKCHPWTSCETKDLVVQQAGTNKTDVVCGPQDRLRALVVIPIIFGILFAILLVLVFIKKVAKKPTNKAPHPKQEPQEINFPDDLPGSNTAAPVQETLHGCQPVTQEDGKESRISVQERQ

T4 sequence (P25942 21-193): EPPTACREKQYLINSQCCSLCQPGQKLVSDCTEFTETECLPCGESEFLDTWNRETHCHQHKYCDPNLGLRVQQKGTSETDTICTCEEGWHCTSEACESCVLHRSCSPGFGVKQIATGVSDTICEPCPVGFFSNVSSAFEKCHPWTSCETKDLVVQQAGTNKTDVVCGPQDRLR
T1 sequence (P25942 21-193, change not shown): as the sequence (P25942 21-193) above
T2 sequence (G7PG38 entry or part of it mutant): as the sequence (P25942 21-193) above, with G43S, H56R, R70Q, W89L, A95S, L101P, S106L, H142R, L172Q counted along it
T3 sequence (P27512 24-193 limits assumed): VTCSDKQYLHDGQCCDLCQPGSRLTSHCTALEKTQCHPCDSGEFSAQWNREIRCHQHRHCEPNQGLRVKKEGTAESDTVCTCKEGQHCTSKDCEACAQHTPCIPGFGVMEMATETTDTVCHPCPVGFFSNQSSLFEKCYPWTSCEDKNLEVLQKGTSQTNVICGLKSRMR

B1: Y-SM083-B8 (antibody, V domains shown)
VH: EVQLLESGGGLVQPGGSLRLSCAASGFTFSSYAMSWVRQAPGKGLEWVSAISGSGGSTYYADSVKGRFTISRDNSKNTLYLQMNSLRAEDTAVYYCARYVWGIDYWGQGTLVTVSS
VL: DIQMTQSPSSLSASVGDRVTITCRASQSISSYLNWYQQKPGKAPKLLIYAASSLQSGVPSRFSGSGSGTDFTLTISSLQPEDFATYYCQQGYGYPPFTFGQGTKLEIK
B1 registered a koff in test [1] of 0.0015 s⁻¹. This molecule had a kon in test [1] of 120000 M⁻¹ s⁻¹. Besides, the Kd in test [2] was 13 nM; in test [3] it was 13 nM; in test [5] it was 15 nM. Also, the binding result in test [4] was “no binding (tested: 80 nM)”.

B2: Y-SM083-A9 (antibody, human IgG2, kappa, V domains shown)
VH: EVQLLESGGGLVQPGGSLRLSCAASGFTFSSYAMSWVRQAPGKGLEWVSGISGYSGSTYYADSVKGRFTISRDNSKNTLYLQMNSLRAEDTAVYYCARYYSYYGYYYFDYWGQGTLVTVSS
VL: DIQMTQSPSSLSASVGDRVTITCRASQSISSYLNWYQQKPGKAPKLLIYAASSLQSGVPSRFSGSGSGTDFTLTISSLQPEDFATYYCQQGYPYPFTFGQGTKLEIKR
notes: also called A9 antibody; SP9
For B2, the koff was 0.0022 s⁻¹ in test [6], 0.0016 s⁻¹ in test [1] and 0.0061 s⁻¹ in test [5]. The kon came to 500000 M⁻¹ s⁻¹ in test [6], 310000 M⁻¹ s⁻¹ in test [1] and 170000 M⁻¹ s⁻¹ in test [5]. Besides, the Kd in test [2] came out at 4.5 nM; in test [3], 5.1 nM; in test [5], 37 nM. The binding result is given as “no binding (tested: 100 nM)” in test [7] and “no binding (tested: 80 nM)” in test [4].

B3: X-SM083-bi-23 (bispecific antibody, human IgG2, kappa)
heavy: EVQLLESGGGLVQPGGSLRLSCAASGFTFSSYAMSWVRQAPGKGLEWVSGISGYSGSTYYADSVKGRFTISRDNSKNTLYLQMNSLRAEDTAVYYCARYYSYYGYYYFDYWGQGTLVTVSSASTKGPSVFPLAPCSRSTSESTAALGCLVKDYFPEPVTVSWNSGALTSGVHTFPAVLQSSGLYSLSSVVTVPSSNFGTQTYTCNVDHKPSNTKVDKTVERKCCVECPPCPAPPVAGPSVFLFPPKPKDTLMISRTPEVTCVVVDVSHEDPEVQFNWYVDGVEVHNAKTKPREEQFNSTFRVVSVLTVVHQDWLNGKEYKCKVSNKGLPAPIEKTISKTKGQPREPQVYTLPPSREEMTKNQVSLTCLVKGFYPSDIAVEWESNGQPENNYKTTPPMLDSDGSFFLYSKLTVDKSRWQQGNVFSCSVMHEALHNHYTQKSLSLSPGKGGGGSGGGGSEVQLLESGGGLVQPGGSLRLSCAASGFTFSNYWMSWVRQAPGKGLEWVSGISGNGGYTYFADSVKDRFTISRDNSKNTLYLQMNSLRAEDTAVYYCAGGDGSGWSFWGQGTLVTVSSGGGGSGGGGSGGGGSGGGGSQSVLTQPPSASGTPGQRVTISCTGSSSNIGAGYDVHWYQQLPGTAPKLLIYGNNNRPSGVPDRFSGSKSGTSASLAISGLRSEDEADYYCAAWDDSLSGRVFGGGTKLTVL
light: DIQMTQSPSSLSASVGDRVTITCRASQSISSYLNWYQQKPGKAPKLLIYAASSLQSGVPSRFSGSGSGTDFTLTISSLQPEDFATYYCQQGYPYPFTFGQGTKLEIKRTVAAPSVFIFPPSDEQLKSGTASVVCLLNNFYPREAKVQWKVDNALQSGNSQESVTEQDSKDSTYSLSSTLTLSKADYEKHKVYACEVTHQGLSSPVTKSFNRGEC
Take B3: the “agonistic activity relative to the parental antibody SP9 (A9) (IL-12 production by MoDCs)” value in test [8] came out at 92%.
